Assay [1] concerns the target T1, pWT43 PDZ2as (Mus musculus, UniProt Q64512, INS1372VLFDK/Y1385W).
T1 construct: The second PDZ domain of the protein tyrosine phosphatase BL (PDZ2); made in house
T1 sequence (Q64512 with tags, fused parts or gaps INS1372VLFDK/Y1385W): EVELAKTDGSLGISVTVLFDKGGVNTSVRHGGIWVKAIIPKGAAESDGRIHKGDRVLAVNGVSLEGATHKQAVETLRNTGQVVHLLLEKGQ
Briefly: T-jump kinetic binding of dansylated peptides to pWT43 PDZ2as. The following applies: 50 mM sodium phosphate pH 7.2, 150 mM KCl; for Kd: 25°C, from T-jump kinetics, read-out: overall KD obtained from kinetic experiments; for kon / koff: T-jump 16 to 25°C, PDZ2as 2 μM, peptide 100 to 400 μM, fluorescence ex 296 nm, 20 traces averaged, pseudo-first order; for kon: read-out: association bimolecular rate constant kon; for koff: read-out: dissociation rate constant koff. As for the experimental part: Previous studies have highlighted that the alternative splicing affects remarkably the binding function of the PDZ moiety, by nearly abrogating binding. To address the binding mechanism of pWT43 PDZ2as and its physiological partners, we performed kinetic experiments at 25°C. We carried out kinetic binding experiments by subjecting to temperature jump kinetics a constant concentration of pWT43 PDZ2as (2 μM) in the presence of excess concentrations of dansylated peptides mimicking the PDZ binding motif of APC and RIL; the latter concentrations typically varying from 100 to 400 μM. In particular, individual solutions containing a constant concentration of PDZ2as 2 μM and different concentrations of APC and RIL peptide were prepared and, subsequently, each of these solutions was subjected to a rapid temperature-jump to explore sub-ms relaxation binding kinetics. Under all the explored conditions, the observed time course was satisfactorily fitted by a single-exponential function, without evidence for accumulation of detectable intermediates. Analysis of the pseudo-first order dependence of observed rate constants (Figure 6) yields an association bimolecular rate constant kon of (0.44 ± 0.1) 10^6 s^−1 M^−1 and (0.74 ± 0.1) 10^6 s^−1 M^−1 and a dissociation rate constant koff of 145 ± 10 s^−1 and 120 ± 15 s^−1, respectively for APC and RIL peptides. […] A comparison between the observed kinetics on the light of previously reported structural and kinetic data of pWT43 PDZ2 is briefly discussed below.
Figure 6 Binding properties of pWT43 PDZ2as and of pWT43 PDZ2. Pseudo first order kinetics of the binding between pWT43 PDZ2as (circles) and pWT43 PDZ2 (diamonds) carried out at pH 7.2, 25°C. Data refer to both the APC (open symbols) and RIL (filled symbols) peptide.
Dansylated peptides corresponding to the C-terminus of APC and RIL, sequences D-SYLVTSV and D-EQVSAV, respectively, were purchased from JPT Peptide Technologies (Berlin, Germany); peptides were purified using high-performance liquid chromatography-purified peptide with purity higher than 95%.
Binding experiments were performed mixing a constant concentration of PDZ2as 2 μM with increasing concentrations of the APC or RIL peptide ranging from 100 to 400 μM in 50 mM sodium phosphate pH 7.2, in the presence of 150 mM KCl. The experiments were carried out using a Hi-Tech PTJ-64 capacitor-discharge T-jump apparatus (Hi-Tech, Salisbury, U.K.). Temperature was rapidly changed from 16°C to 25°C with a jump of 9°C. 20 individual traces were averaged at given peptide concentration. The fluorescence change of N-acetyltryptophanamide (NATA) was used in control measurements. Protein concentration was typically […]. The excitation wavelength was 296 nm and the fluorescence emission was measured using a band pass 315 +/− 25 nm glass filter.

Assay [2] has as its target T2, pWT43 PDZ2as, the alternatively spliced form of the second PDZ domain of protein tyrosine phosphatase BL ….
T2 chain: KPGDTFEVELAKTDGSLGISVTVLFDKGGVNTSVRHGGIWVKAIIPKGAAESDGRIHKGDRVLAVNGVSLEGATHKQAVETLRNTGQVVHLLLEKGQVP
In words: temperature-jump fluorescence relaxation kinetics; constant pWT43 PDZ2as 2 uM with dansylated peptide 100 to 400 uM (pseudo-first order); 50 mM sodium phosphate pH 7.2, 150 mM KCl; jump from 16 to 25 °C; KD from kinetics. The following applies: both partners purified.

Where a SMILES comes first, the peptide text is derived from it. Where no end group is shown, it is not given here. The star is where a group is joined. Dansyl = CN(C)c1cccc2c(S(=O)(=O)*)cccc12

By Kd is commonly meant the free concentration of one partner at which half of the binding sites on the other are occupied at equilibrium, for simple one-to-one binding. What is called kon is the rate constant with which the complex forms. What is called koff is the first-order rate constant of dissociation. On to `CC(C)C[C@H](NC(=O)[C@H](Cc1ccc(O)cc1)NC(=O)[C@H](CO)NS(=O)(=O)c1cccc2c(N(C)C)cccc12)C(=O)N[C@H](C(=O)N[C@H](C(=O)N[C@@H](CO)C(=O)N[C@H](C(=O)O)C(C)C)[C@@H](C)O)C(C)C` [APC] (Dansyl-SYLVTSV-OH), for which, in assay [1], the Kd was 352 ± 20 µM, the kon was 440000 ± 100000 M⁻¹ s⁻¹ and the koff worked out at 145 ± 10 s⁻¹.
In the same order, the values of `CC(C)[C@H](NC(=O)[C@H](C)NC(=O)[C@H](CO)NC(=O)[C@@H](NC(=O)[C@H](CCC(N)=O)NC(=O)[C@H](CCC(=O)O)NS(=O)(=O)c1cccc2c(N(C)C)cccc12)C(C)C)C(=O)O` [RIL] (Dansyl-EQVSAV-OH) are 162 ± 10 µM, 740000 ± 100000 M⁻¹ s⁻¹ and 120 ± 15 s⁻¹.

B1: Dansylated peptide corresponding to the C-terminus of RIL (D-EQVSAV) (peptide)
peptide: Dansyl-EQVSAV
notes: Which natural protein the peptide comes from is in doubt; also called RIL peptide; source: bought: JPT Peptide Technologies (Berlin, Germany), HPLC-purified, purity higher than 95%
With B1, in assay [2], binding was put at a Kd of 162 ± 10 µM, the “fold decrease of kon against pWT43 PDZ2” value is approximately 10 fold, the off-rate (koff) was found to be 120 ± 15 s⁻¹ and the on-rate (kon) came to 740000 M⁻¹ s⁻¹.

B2: Dansylated peptide corresponding to the C-terminus of APC (D-SYLVTSV) (peptide)
peptide: Dansyl-SYLVTSV
notes: C-terminus of the tumour suppressor protein APC; the last 7 residues; also called APC peptide; source: bought: JPT Peptide Technologies (Berlin, Germany), HPLC-purified, purity higher than 95%
For the molecule B2, in assay [2], the equilibrium dissociation constant (Kd) was found to be 352 ± 20 µM, the “fold decrease of kon against pWT43 PDZ2” value is approximately 10 fold, the koff was found to be 145 ± 10 s⁻¹ and the kon was determined as 440000 M⁻¹ s⁻¹.

These data come from article PMC4365404, “Understanding the effect of alternative splicing in the folding and function of the second PDZ from Protein Tyrosine Phosphatase-BL” (Scientific Reports, 2015).
